In patent US20180030151A1 (MOGAM INSTITUTE FOR BIOMEDICAL RESEARCH, published 2018):
Read-outs that look alike come from different tables or passages of the source. Blank lines part the entries; values can stand above or below the binder they belong to.

Key:
[1] = biological target: T1, recombinant human TFPI (tissue factor pathway inhibitor) (human, UniProt P10646 29-304); assay: cell-based or functional assay
[2] = biological target: T1, recombinant human TFPI (tissue factor …); assay: cell-based or functional assay; remark: listed apart in the source
[3] = biological target: T1, recombinant human TFPI (tissue factor …); assay: cell-based or functional assay; remark: listed apart in the source
[4] = biological target: T1, recombinant human TFPI (tissue factor …); assay: cell-based or functional assay; remark: listed apart in the source
[5] = biological target: T1, recombinant human TFPI (tissue factor …); assay: cell-based or functional assay; remark: listed apart in the source
[6] = biological target: T1, recombinant human TFPI (tissue factor …); assay: cell-based or functional assay; remark: listed apart in the source
[7] = biological target: T1, recombinant human TFPI (tissue factor …); assay: cell-based or functional assay; remark: listed apart in the source
[8] = biological target: T1, recombinant human TFPI (tissue factor …); assay: cell-based or functional assay; remark: listed apart in the source
[9] = biological target: T1, recombinant human TFPI (tissue factor …); assay: yeast-display scFv, FACS with biotinylated TFPI
Protocol: The finally amplified single colonies were collected from the yeast display library, and then cultured in SD medium at 30° C. at 200 rpm for 12 hours. Then, the medium was replaced with SG medium, and the cells were cultured at 25° C. at 200 rpm for 12 hours or more, thereby expressing the antibody on the yeast surface. Next, the yeast cells recovered by centrifugation were washed with PBSF (1% BSA containing PBS) buffer, resuspended in 50 μl of PBSF buffer, and then incubated with a biotin-conjugated recombinant human TFPI protein and anti-c-myc mouse antibody (CAT. No. M4439, Sigma) at room temperature for 30 minutes. The incubated yeast cells were washed with PBSF, resuspended in 50 μl of PBSF buffer, and then incubated with FITC-conjugated anti-mouse antibody (CAT. No. F0257, Sigma) and PE-conjugated streptavidin on ice under a light-shielded condition for 15 minutes. Next, the cells were washed with PBSF buffer, resuspended in 500 μl of PBSF buffer, and then clones showing high values in the FITC and PE wavelength ranges were selected by FACS, thereby obtaining individual clones.

B1: clone 8 (antibody, V domains shown)
VH: EVQLVESGGGLVKPGGSLRLSCAASGFTFSSYAMNWVRQAPGKGLEWVSTITTGGSYTYYADSVEGRFTISRDNAKNSLYLQMNSLRAEDTAVYYCARQDGNFLMDYWGQGTLVTVSS
VL: DVVMTQTPLSLPVTLGQPASISCKSSPSLLDVDGKTYLNWLQQRPGQSPKRLIYLVSKLDSGVPDRFTGSGSGTDFTLKISRVEAEDVGVYYCWQGTHFPFTFGQGTKVEIKR
effect of inhibiting TFPI, FXa activity assay, Ab 10 nM [1]: ~69% | effect of inhibiting TFPI, FXa activity assay, Ab 20 nM [1]: ~80% | A405, TF/FVIIa/FX complex assay (FX 5 nM), Ab 1.56 nM [2]: 0.041 | A405, TF/FVIIa/FX complex assay (FX 5 nM), Ab 3.13 nM [2]: 0.05 | A405, TF/FVIIa/FX complex assay (FX 5 nM), Ab 6.25 nM [2]: 0.052 | A405, TF/FVIIa/FX complex assay (FX 5 nM), Ab 12.5 nM [2]: 0.088 | A405, TF/FVIIa/FX complex assay (FX 5 nM), Ab 25 nM [2]: 0.391 | A405, TF/FVIIa/FX complex assay (FX 5 nM), Ab 50 nM [2]: 0.673 | A405, TF/FVIIa/FX complex assay (FX 5 nM), Ab 100 nM [2]: 0.834 | % of Normalized, TF/FVIIa/FX complex assay (FX 5 nM), Ab 1.56 nM [3]: 5.1% | % of Normalized, TF/FVIIa/FX complex assay (FX 5 nM), Ab 3.13 nM [3]: 6.1% | % of Normalized, TF/FVIIa/FX complex assay (FX 5 nM), Ab 6.25 nM [3]: 6.4% | % of Normalized, TF/FVIIa/FX complex assay (FX 5 nM), Ab 12.5 nM [3]: 10.8% | % of Normalized, TF/FVIIa/FX complex assay (FX 5 nM), Ab 25 nM [3]: 48.3% | % of Normalized, TF/FVIIa/FX complex assay (FX 5 nM), Ab 50 nM [3]: 83.2% | % of Normalized, TF/FVIIa/FX complex assay (FX 5 nM), Ab 100 nM [3]: 103% | FXa assay % of FXa alone, 2.5 nM Ab, 10 nM TFPI [4]: 7.1% | FXa assay % of FXa alone, 5 nM Ab, 10 nM TFPI [4]: 33.8% | FXa assay OD, 2.5 nM Ab, 10 nM TFPI [4]: 0.054 | FXa assay OD, 5 nM Ab, 10 nM TFPI [4]: 0.258 | FXa assay OD, 10 nM Ab, 10 nM TFPI [4]: 0.527 | FXa assay OD, 20 nM Ab, 10 nM TFPI [4]: 0.61 | FXa assay % of FXa alone, 2.5 nM Ab, 10 nM TFPI [5]: 7.4% | FXa assay % of FXa alone, 5 nM Ab, 10 nM TFPI [5]: 31% | FXa assay % of FXa alone, 10 nM Ab, 10 nM TFPI [5]: 70.5% | FXa assay % of FXa alone, 20 nM Ab, 10 nM TFPI [5]: 77.5% | FXa assay OD, 2.5 nM Ab, 10 nM TFPI [5]: 0.0615 | FXa assay OD, 5 nM Ab, 10 nM TFPI [5]: 0.256 | FXa assay OD, 10 nM Ab, 10 nM TFPI [5]: 0.583 | FXa assay OD, 20 nM Ab, 10 nM TFPI [5]: 0.64

B2: clone 23 (antibody, V domains shown)
VH: EVQLVESGGGLVKPGGSLRLSCAASGFTFSHYAMNWVRQAPGKGLEWVSTITTGGSYTYYADSVEGRFTISRDNAKNSLYLQMNSLRAEDTAVYYCARQDGHFLMDYWGQGTLVTVSS
VL: DVVMTQTPLSLPVTLGQPASISCKSSPSLLDIDGKTYLNWLQQRPGQSPKRLIYLVSKLDSGVPDRFTGSGSGTDFTLKISRVEAEDVGVYYCWQGTHLPFTFGQGTKVEIKR
FXa assay % of FXa alone, 2.5 nM Ab, 10 nM TFPI [6]: 6.9% | FXa assay % of FXa alone, 5 nM Ab, 10 nM TFPI [6]: 7.4% | FXa assay % of FXa alone, 10 nM Ab, 10 nM TFPI [6]: 10.4% | FXa assay % of FXa alone, 20 nM Ab, 10 nM TFPI [6]: 62.5% | FXa assay OD, 2.5 nM Ab, 10 nM TFPI [6]: 0.082 | FXa assay OD, 10 nM Ab, 10 nM TFPI [6]: 0.124 | FXa assay OD, 20 nM Ab, 10 nM TFPI [6]: 0.745

B3: clone 13 (antibody, V domains shown)
VH: EVQLVESGGGLVKPGGSLRLSCAASGFTFSSYAMNWVRQAPGKGLEWVGTITTGGSHTYYADSVEGRFTISRDNAKNSLYLQMNSLRAEDTAVYYCARQDGNFLMDYWGQGTLVTVSS
VL: DVVMTQTPLSLPVTLGQPASISCKSSPSLLDIDGKTYLNWLQQRPGQSPKRLIYLVSKLDSGVPDRFTGSGSGTDFTLKISRVEAEDVGVYYCWQGTHFPFTFGQGTKVEIKR
effect of inhibiting TFPI, FXa activity assay, Ab 10 nM [1]: ~76% | effect of inhibiting TFPI, FXa activity assay, Ab 20 nM [1]: ~85% | A405, TF/FVIIa/FX complex assay, Ab 1.56 nM [7]: 0.046 | A405, TF/FVIIa/FX complex assay, Ab 3.13 nM [7]: 0.054 | A405, TF/FVIIa/FX complex assay, Ab 6.25 nM [7]: 0.075 | A405, TF/FVIIa/FX complex assay, Ab 12.5 nM [7]: 0.101 | A405, TF/FVIIa/FX complex assay, Ab 25 nM [7]: 0.528 | A405, TF/FVIIa/FX complex assay, Ab 50 nM [7]: 0.818 | A405, TF/FVIIa/FX complex assay, Ab 100 nM [7]: 0.859 | % of Normalized, TF/FVIIa/FX complex assay, Ab 1.56 nM [8]: 5.4% | % of Normalized, TF/FVIIa/FX complex assay, Ab 3.13 nM [8]: 6.4% | % of Normalized, TF/FVIIa/FX complex assay, Ab 6.25 nM [8]: 8.8% | % of Normalized, TF/FVIIa/FX complex assay, Ab 12.5 nM [8]: 11.9% | % of Normalized, TF/FVIIa/FX complex assay, Ab 25 nM [8]: 62.2% | % of Normalized, TF/FVIIa/FX complex assay, Ab 50 nM [8]: 96.5% | % of Normalized, TF/FVIIa/FX complex assay, Ab 100 nM [8]: 101% | FXa assay % of FXa alone, 2.5 nM Ab, 10 nM TFPI [5]: 7.8% | FXa assay % of FXa alone, 5 nM Ab, 10 nM TFPI [5]: 44.8% | FXa assay OD, 2.5 nM Ab, 10 nM TFPI [5]: 0.0645 | FXa assay OD, 5 nM Ab, 10 nM TFPI [5]: 0.37 | FXa assay OD, 10 nM Ab, 10 nM TFPI [5]: 0.624 | FXa assay OD, 20 nM Ab, 10 nM TFPI [5]: 0.706

B6: clone 16 (antibody, V domains shown)
VH: EVQLVESGGGLVKPGGSLRLSCAASGFTFSHYAMTWVRQAPGKGLEWVSTITTGGSHTYYADSVEGRFTISRDNAKNSLYLQMNSLRAEDTAVYYCARQDGNFLMDYWGQGTLVTVSS
VL: DVVMTQTPLSLPVTLGQPASISCKSSPSLLDIDGKTYLNWLQQRPGQSPKRLIYLVSKLDSGVPDRFTGSGSGTDFTLKISRVEAEDVGVYYCWQGTHFPFTFGQGTKVEIKR
effect of inhibiting TFPI, FXa activity assay, Ab 10 nM [1]: ~34% | effect of inhibiting TFPI, FXa activity assay, Ab 20 nM [1]: ~55% | FXa assay % of FXa alone, 2.5 nM Ab, 10 nM TFPI [6]: 7.3% | FXa assay % of FXa alone, 5 nM Ab, 10 nM TFPI [6]: 10.2% | FXa assay OD, 2.5 nM Ab, 10 nM TFPI [6]: 0.0865 | FXa assay OD, 5 nM Ab, 10 nM TFPI [6]: 0.122 | FXa assay OD, 10 nM Ab, 10 nM TFPI [6]: 0.405 | FXa assay OD, 20 nM Ab, 10 nM TFPI [6]: 0.651

Results, then the binder that gave them:

binding result [9]: binds
B4: clone 4011 (antibody, V domains shown)
VH: EVQLVESGGGLVKPGGSLRLSCAASGFTFYSYAMNWVRQAPGKGLEWVSTITTGGSHTYYADSVEGRFTISRDNAKNSLYLQMNSLRAEDTAVYYCARQDGNFLMDYWGQGTLVTVSS
VL: DVVMTQTPLSLPVTLGQPASISCKSSQSLLDVDGKTYLNWLQQRPGQSPKRLIYLVSKLDSGVPDRFTGSGSGTDFTLKISRVEAEDVGVYYCWQGTHLPFTFGQGTKVEIKR
notes: scFv on yeast at selection; human IgG4/kappa IgG as purified

FXa assay % of FXa alone, 2.5 nM Ab, 10 nM TFPI [6]: 5.9% | FXa assay % of FXa alone, 5 nM Ab, 10 nM TFPI [6]: 6% | FXa assay % of FXa alone, 10 nM Ab, 10 nM TFPI [6]: 6.5% | FXa assay % of FXa alone, 20 nM Ab, 10 nM TFPI [6]: 7.2%
B5: clone 21 (antibody, V domains shown)
VH: EVQLVESGGGLVKPGGSLRLSCAASGFTFSSYAMNWVRQAPGKGLEWVSTITKGGSYTYYADSVDGRFTISRDNAKNSLYLQMNSLRAEDTAVYYCARQDGNFLMDYWGQGTLVTVSS
VL: DVVMTQTPLSLPVTLGQPASISCKSSPSLLDSDGKTYLNWLQQRPGQSPKRLIYLVSKLDSGVPDRFTGSGSGTDFTLKISRVEAEDVGVYYCWQGTHFPFTFGQGTKVEIKR
